Measured values published in PMC6995776 (Journal of molecular biology, 2019).

Experiments:
Test in all cases: ITC
[1] = target: T1, TbPRMT1 ENZ-PRO complex (wild type) (Trypanosoma brucei, UniProt Q4GYA9 1-345)
[2] = target: TbPRMT1 ENZ-Δ21PRO complex (Trypanosoma brucei, UniProt Q4GYA9 1-345)
[3] = target: TbPRMT1 ENZ-Δ31PRO complex (Trypanosoma brucei, UniProt Q4GYA9 1-345)
[4] = target: TbPRMT1 ENZ-Δ45PRO complex (Trypanosoma brucei, UniProt Q4GYA9 1-345)
[5] = target: T1, TbPRMT1 ENZ-PRO complex (wild type); remark: listed apart in the source

B1: Maltose Binding Protein (MBP)-fused TbRGG1 (natural protein)
chain: MVCSTICLFQRGQWGNEGSRGDQRNYDNRGGRGEWGDRGGQRGDNQRDYGDQRNYDNRGGRGEWGDRGGQRGDNQRDYGDQRNYDNRGGRGEWGDRGGQRGDNQRDYGDQRNYDNRGGRGEWGDRGGQRGDNQRDYGDQRNYDNRGGRGEWGDRGGQRGDNQRDYGDQRNYDNRGGRGEWGDRGGQRGDNQRNYDNRGGRGEWGDRGGQRGGNQRDNSNQFGYRNERDGGIGRQRSARDNFGAHDNRASDERGSTDPAVGEVFDEQAAKILYELKRRFKSSKTGKERRDVQREARRIVRRARVDPSTQDEKSVTLLLNCAATFRCYPHTEGIKQATEWMRKNIDGLSPQNVALFTNAIGALSVVDSDTILINEISPAVEACYGQMNPVELVMTLQAFQRGRITENEDLQVSLLQQLVTCVPQMPAPQLSTLAGVLVDTPLRKRDEATWQEIAKTVVSKAASGAENMHSREVITLLKATPRLGVPEDHSFHLVDRAIATVGFHTDEQIGELLEAVSYYRDPQKTCGRELNEKLDKLVDALWARLQKVAPFADAASVTTIMRAAHRSGVDVPRDIVSTLVQAVMRELRYHRFTFRRVASLSEALALQKVPAKELLVMLGDYCIGKRPPREERGENTPVDDHNSGIEERMDIYARFLGDLTKARIALENAHSSNAGNGEPGSSVSQILAQRLEDSVGSAPPRELLKSVRAICTAADDCPFRNRANDGKIIALSEQRIAKEGASFMEGVRKTTMENFLSAVSGIPQAQKVVEVLSHQTR
stoichiometry N [1]: 1
Kd [2]: 36 µM
Kd [3]: 86 µM
Kd [4]: 160 µM
Kd [5]: 9 µM
